Test results taken from patent publication US20260117202A1.

Tests used:
Assay in all cases: sandwich ELISA, AM14 coated, supernatant 1:10
FHS-89 (RSV strain A2) = FHS-89 (RSV strain A2) (UniProt P03420)
FHS-44 (RSV strain A2) = FHS-44 (RSV strain A2) (UniProt P03420)
FHM-3 (RSV strain A2) = FHM-3 (RSV strain A2) (UniProt P03420)
FHS-30 (RSV strain A2) = FHS-30 (RSV strain A2) (UniProt P03420)
FHS-95 (RSV strain A2) = FHS-95 (RSV strain A2) (UniProt P03420)
FHS-66 (RSV strain A2) = FHS-66 (RSV strain A2) (UniProt P03420)
[1] = target: wild-type RSV F protein 1 before artificial mutation (RSV strain A2) (UniProt P03420)
FHS-52 (RSV strain A2) = FHS-52 (RSV strain A2) (UniProt P03420)
FHS-3 (RSV strain A2) = FHS-3 (RSV strain A2) (UniProt P03420)
FHS-69 (RSV strain A2) = FHS-69 (RSV strain A2) (UniProt P03420)
FHM-18 (RSV strain A2) = FHM-18 (RSV strain A2) (UniProt P03420)
FHM-21 (RSV strain A2) = FHM-21 (RSV strain A2) (UniProt P03420)
FHS-65 (RSV strain A2) = FHS-65 (RSV strain A2) (UniProt P03420)
FHM-23 (RSV strain A2) = FHM-23 (RSV strain A2) (UniProt P03420)
FHS-18 (RSV strain A2) = FHS-18 (RSV strain A2) (UniProt P03420)
FHS-7 (RSV strain A2) = FHS-7 (RSV strain A2) (UniProt P03420)
FHS-43 (RSV strain A2) = FHS-43 (RSV strain A2) (UniProt P03420)
FHS-84 (RSV strain A2) = FHS-84 (RSV strain A2) (UniProt P03420)
FHS-56 (RSV strain A2) = FHS-56 (RSV strain A2) (UniProt P03420)
FHM-7 (RSV strain A2) = FHM-7 (RSV strain A2) (UniProt P03420)
FHS-72 (RSV strain A2) = FHS-72 (RSV strain A2) (UniProt P03420)
FHM-10 (RSV strain A2) = FHM-10 (RSV strain A2) (UniProt P03420)
FHS-94 (RSV strain A2) = FHS-94 (RSV strain A2) (UniProt P03420)
FHS-83 (RSV strain A2) = FHS-83 (RSV strain A2) (UniProt P03420)
FHS-45 (RSV strain A2) = FHS-45 (RSV strain A2) (UniProt P03420)
FHS-86 (RSV strain A2) = FHS-86 (RSV strain A2) (UniProt P03420)
FHS-22 (RSV strain A2) = FHS-22 (RSV strain A2) (UniProt P03420)
FHS-48 (RSV strain A2) = FHS-48 (RSV strain A2) (UniProt P03420)
FHS-13 (RSV strain A2) = FHS-13 (RSV strain A2) (UniProt P03420)
FHS-81 (RSV strain A2) = FHS-81 (RSV strain A2) (UniProt P03420)
FHM-24 (RSV strain A2) = FHM-24 (RSV strain A2) (UniProt P03420)
FHS-67 (RSV strain A2) = FHS-67 (RSV strain A2) (UniProt P03420)
FHS-24 (RSV strain A2) = FHS-24 (RSV strain A2) (UniProt P03420)
FHS-16 (RSV strain A2) = FHS-16 (RSV strain A2) (UniProt P03420)
FHS-54 (RSV strain A2) = FHS-54 (RSV strain A2) (UniProt P03420)
FHS-46 (RSV strain A2) = FHS-46 (RSV strain A2) (UniProt P03420)
FHM-13 (RSV strain A2) = FHM-13 (RSV strain A2) (UniProt P03420)
FHM-5 (RSV strain A2) = FHM-5 (RSV strain A2) (UniProt P03420)
FHS-17 (RSV strain A2) = FHS-17 (RSV strain A2) (UniProt P03420)
FHS-85 (RSV strain A2) = FHS-85 (RSV strain A2) (UniProt P03420)
FHS-98 (RSV strain A2) = FHS-98 (RSV strain A2) (UniProt P03420)

Substance: AM14 monoclonal antibody
- OD value (FHS-89 (RSV strain A2)): 0.006 OD
- OD value (FHS-44 (RSV strain A2)): 0.039 OD
- OD value (FHM-3 (RSV strain A2)): 0.07 OD
- OD value (FHS-30 (RSV strain A2)): 0.009 OD
- OD value (FHS-95 (RSV strain A2)): 0.007 OD
- OD value (FHS-66 (RSV strain A2)): 1.75 OD
- OD value [1]: 0.014 OD
- OD value (FHS-52 (RSV strain A2)): 0.007 OD
- OD value (FHS-3 (RSV strain A2)): 0.076 OD
- OD value (FHS-69 (RSV strain A2)): 1.88 OD
- OD value (FHM-18 (RSV strain A2)): 1.8 OD
- OD value (FHM-21 (RSV strain A2)): 0.007 OD
- OD value (FHS-65 (RSV strain A2)): 1.73 OD
- OD value (FHM-23 (RSV strain A2)): 1.89 OD
- OD value (FHS-18 (RSV strain A2)): 0.009 OD
- OD value (FHS-7 (RSV strain A2)): 0.011 OD
- OD value (FHS-43 (RSV strain A2)): 0.006 OD
- OD value (FHS-84 (RSV strain A2)): 1.01 OD
- OD value (FHS-56 (RSV strain A2)): 0.009 OD
- OD value (FHM-7 (RSV strain A2)): 0.007 OD
- OD value (FHS-72 (RSV strain A2)): 0.007 OD
- OD value (FHM-10 (RSV strain A2)): 0.01 OD
- OD value (FHS-94 (RSV strain A2)): 0.009 OD
- OD value (FHS-83 (RSV strain A2)): 0.064 OD
- OD value (FHS-45 (RSV strain A2)): 0.12 OD
- OD value (FHS-86 (RSV strain A2)): 0.062 OD
- OD value (FHS-22 (RSV strain A2)): 0.01 OD
- OD value (FHS-48 (RSV strain A2)): 2.42 OD
- OD value (FHS-13 (RSV strain A2)): 0.013 OD
- OD value (FHS-81 (RSV strain A2)): 0.008 OD
- OD value (FHM-24 (RSV strain A2)): 1.61 OD
- OD value (FHS-67 (RSV strain A2)): 1.86 OD
- OD value (FHS-24 (RSV strain A2)): 0.01 OD
- OD value (FHS-16 (RSV strain A2)): 0.009 OD
- OD value (FHS-54 (RSV strain A2)): 0.012 OD
- OD value (FHS-46 (RSV strain A2)): 2.41 OD
- OD value (FHM-13 (RSV strain A2)): 1.07 OD
- OD value (FHM-5 (RSV strain A2)): 1.96 OD
- OD value (FHS-17 (RSV strain A2)): 0.009 OD
- OD value (FHS-85 (RSV strain A2)): 0.008 OD
- OD value (FHS-98 (RSV strain A2)): 0.007 OD
